Experimental data reported in publication PMC8458281, “Computational modeling and experimental validation of the EPI-X4/CXCR4 complex allows rational design of small peptide antagonists” (Communications Biology, 2021).
Values belong to the molecule of their own block, whether it stands above or below them. No end group written: not given here.

Key:
CXCR4 L41A [1] = experiment: 12G5 antibody competition, 293T cells transfected with CXCR4 L41A; assay type: binding, human; details: IC50 on CXCR4 L41A relative to wt
Procedure: (§1) Fig. 4 The interactions of EPI-X4 and the EPI-X4 derivatives WSC02 and JM#21 with point-mutated CXCR4 were assessed by an antibody competition assay. Amino acid substitutions were introduced in the sequence of CXCR4 by site-directed mutagenesis, cloned into an IRES-eGFP expression vector, and transfected into 293 T cells. Afterward, cells were incubated with serially diluted EPI-X4 (a, b), WSC02 (c, d), or JM#21 (e, f) in presence of a constant concentration of CXCR4 specific antibody (clone 12G5). After 2 h, bound antibody was analyzed by flow cytometry. a, c, e) Representative dose-dependent replacement of 12G5 antibody by peptides. b, d, f) IC50 values were calculated by nonlinear regression. Shown are data derived from at least three individual experiments ± SEM. IC50 values were set to 1000 µM (EPI-X4 and WSC02) or 100 µM (JM#21) if the value exceeds the maximally used concentration. *p ≤ 0.05, ***p ≤ 0.001 (one-way ANOVA for comparison with wt). For IC50 values see Table 1. For all binding curves see also Fig. S8.
(§2) Mutated CXCR4 constructs were transfected into 293 T cells that have a very low endogenous expression level of wild-type CXCR4. Transfected cells were then analyzed for CXCR4 surface expression (Fig. S5a) and EPI-X4 binding using a flow cytometry-based antibody competition assay (Fig. S5b, c)[33]. […]

CXCR4 D97E [2] = experiment: 12G5 antibody competition, 293T cells transfected with CXCR4 D97E; assay type: binding, human; details: IC50 on CXCR4 D97E relative to wt
Procedure: as §1, §2

CXCR4 D97S [3] = experiment: 12G5 antibody competition, 293T cells transfected with CXCR4 D97S; assay type: binding, human; details: IC50 on CXCR4 D97S relative to wt
Procedure: as §1, §2

CXCR4 V112A [4] = experiment: 12G5 antibody competition, 293T cells transfected with CXCR4 V112A; assay type: binding, human; details: IC50 on CXCR4 V112A relative to wt
Procedure: as §1, §2

CXCR4 D187E [5] = experiment: 12G5 antibody competition, 293T cells transfected with CXCR4 D187E; assay type: binding, human; details: IC50 on CXCR4 D187E relative to wt
Procedure: as §1, §2

CXCR4 D262A [6] = experiment: 12G5 antibody competition, 293T cells transfected with CXCR4 D262A; assay type: binding, human; details: IC50 on CXCR4 D262A relative to wt
Procedure: as §1, §2

CXCR4 E277A [7] = experiment: 12G5 antibody competition, 293T cells transfected with CXCR4 E277A; assay type: binding, human; details: IC50 on CXCR4 E277A relative to wt
Procedure: as §1, §2

CXCR4 D97E + V112A [8] = experiment: 12G5 antibody competition, 293T cells transfected with CXCR4 D97E + V112A; assay type: binding, human; details: IC50 on CXCR4 D97E + V112A relative to wt
Procedure: as §1, §2

CXCR4 D97E + V112L [9] = experiment: 12G5 antibody competition, 293T cells transfected with CXCR4 D97E + V112L; assay type: binding, human; details: IC50 on CXCR4 D97E + V112L relative to wt
Procedure: as §1, §2

CXCR4 V112A + L41A [10] = experiment: 12G5 antibody competition, 293T cells transfected with CXCR4 V112A + L41A; assay type: binding, human; details: IC50 on CXCR4 V112A + L41A relative to wt
Procedure: as §1, §2

[11] = system: CXCR4 D97E + V112A + L41A; experiment: 12G5 antibody competition, 293T cells transfected with CXCR4 D97E + V112A + L41A; assay type: binding, human; details: IC50 on CXCR4 D97E + V112A + L41A relative to wt
Procedure: as §1, §2

[12] = molecular target: T1, C-X-C motif chemokine receptor 4 (CXCR4) on SupT1 cells (human (endogenous in SupT1), UniProt P61073 1-352); experiment: flow cytometry on cells; 12G5 antibody competition on SupT1 cells; peptides in PBS with APC-conjugated 12G5 at a concentration close to its EC50, 4 °C, 2 h; MFI normalized to PBS control; IC50 by nonlinear regression; details: one partner purified
T1 construct: CXCR4 as expressed on SupT1 cells; source: endogenous, on SupT1 cells

[13] = molecular target: CXCR4 D97E + V112A + L41A (human, UniProt P61073-1 1-352, L41A | D97E | V112A); experiment: FACS
CXCR4 D97S [14] = molecular target: CXCR4 D97S (human, UniProt P61073-1 1-352, D97S); experiment: FACS
CXCR4 D97T = CXCR4 D97T (human, UniProt P61073-1 1-352, D97T); experiment: FACS
CXCR4 D97Q = CXCR4 D97Q (human, UniProt P61073-1 1-352, D97Q); experiment: FACS
CXCR4 V112A [15] = molecular target: CXCR4 V112A (human, UniProt P61073-1 1-352, V112A); experiment: FACS
CXCR4 D97E [16] = molecular target: CXCR4 D97E (human, UniProt P61073-1 1-352, D97E); experiment: FACS
Chain of CXCR4 D97E (human, UniProt P61073-1 1-352, D97E) (P61073 whole entry D97E): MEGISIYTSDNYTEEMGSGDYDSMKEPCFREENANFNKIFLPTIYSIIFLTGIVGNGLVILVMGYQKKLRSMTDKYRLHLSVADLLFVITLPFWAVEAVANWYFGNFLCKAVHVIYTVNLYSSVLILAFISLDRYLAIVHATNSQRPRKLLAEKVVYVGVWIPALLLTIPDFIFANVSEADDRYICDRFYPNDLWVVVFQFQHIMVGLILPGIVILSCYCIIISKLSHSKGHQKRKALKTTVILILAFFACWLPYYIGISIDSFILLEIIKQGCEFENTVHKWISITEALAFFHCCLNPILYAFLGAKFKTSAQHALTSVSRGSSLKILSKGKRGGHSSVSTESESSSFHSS

CXCR4 E288A = CXCR4 E288A (human, UniProt P61073-1 1-352, E288 to Ala); experiment: FACS
[17] = molecular target: T2, CXCR4 wt (transfected 293T cells) (human, UniProt P61073-1 1-352); experiment: FACS
T2 chain: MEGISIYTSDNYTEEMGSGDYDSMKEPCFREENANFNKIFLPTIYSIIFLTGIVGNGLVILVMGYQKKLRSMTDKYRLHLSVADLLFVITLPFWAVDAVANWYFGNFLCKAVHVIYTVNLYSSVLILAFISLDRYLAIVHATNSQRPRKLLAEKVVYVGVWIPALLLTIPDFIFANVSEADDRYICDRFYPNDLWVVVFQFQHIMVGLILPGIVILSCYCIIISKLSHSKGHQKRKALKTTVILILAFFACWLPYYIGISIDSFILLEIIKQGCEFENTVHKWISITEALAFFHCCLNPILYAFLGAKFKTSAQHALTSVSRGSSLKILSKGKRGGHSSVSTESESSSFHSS

CXCR4 D97E + V112L [18] = molecular target: CXCR4 D97E + V112L (human, UniProt P61073-1 1-352, D97E | V112L); experiment: FACS
Chain of CXCR4 D97E + V112L (human, UniProt P61073-1 1-352, D97E | V112L) (P61073 whole entry D97E/V112L): as the sequence (P61073 whole entry D97E) above, with V112L counted along it

CXCR4 V112L = CXCR4 V112L (human, UniProt P61073-1 1-352, V112L); experiment: FACS
Chain of CXCR4 V112L (P61073 whole entry V112L): as the sequence (P61073 whole entry D97E) above, with E97D, V112L counted along it

CXCR4 D187E [19] = molecular target: CXCR4 D187E (human, UniProt P61073-1 1-352, D187E); experiment: FACS
Chain of CXCR4 D187E (human, UniProt P61073-1 1-352, D187E) (P61073 whole entry D187E): as the sequence (P61073 whole entry D97E) above, with E97D, D187E counted along it

CXCR4 E288D = CXCR4 E288D (human, UniProt P61073-1 1-352, E288 to Asp); experiment: FACS
Chain of CXCR4 E288D (P61073 whole entry E288D): as the sequence (P61073 whole entry D97E) above, with E97D, E288D counted along it

CXCR4 L41A [20] = molecular target: CXCR4 L41A (human, UniProt P61073-1 1-352, L41A); experiment: FACS
Chain of CXCR4 L41A (human, UniProt P61073-1 1-352, L41A) (P61073 whole entry L41A): as the sequence (P61073 whole entry D97E) above, with L41A, E97D counted along it

CXCR4 E277A [21] = molecular target: CXCR4 E277A (human, UniProt P61073-1 1-352, E277A); experiment: FACS
Chain of CXCR4 E277A (human, UniProt P61073-1 1-352, E277A) (P61073 whole entry E277A): as the sequence (P61073 whole entry D97E) above, with E97D, E277A counted along it

CXCR4 D97E + V112A [22] = molecular target: CXCR4 D97E + V112A (human, UniProt P61073-1 1-352, D97E | V112A); experiment: FACS
Chain of CXCR4 D97E + V112A (human, UniProt P61073-1 1-352, D97E | V112A) (P61073 whole entry D97E/V112A): as the sequence (P61073 whole entry D97E) above, with V112A counted along it

CXCR4 D262A [23] = molecular target: CXCR4 D262A (human, UniProt P61073-1 1-352, D262A); experiment: FACS
CXCR4 D97N = CXCR4 D97N (human, UniProt P61073-1 1-352, D97N); experiment: FACS
CXCR4 V112A + L41A [24] = molecular target: CXCR4 V112A + L41A (human, UniProt P61073-1 1-352, L41A | V112A); experiment: FACS
Chain of CXCR4 V112A + L41A (human, UniProt P61073-1 1-352, L41A | V112A) (P61073 whole entry L41A/V112A): as the sequence (P61073 whole entry D97E) above, with L41A, E97D, V112A counted along it

Molecule: LVRYTKKVPQVSTPTL [EPI-X4, 16-mer fragment of albumin, endogenous antagonist and inverse agonist of CXCR4]
Fold change (CXCR4 L41A [1]): 19 | Fold change (CXCR4 D97E [2]): 18 | Fold change (CXCR4 D97S [3]): 112 | Fold change (CXCR4 V112A [4]): 1.6 | Fold change (CXCR4 D187E [5]): 1.2 | Fold change (CXCR4 D262A [6]): 0.7 | Fold change (CXCR4 E277A [7]): 1.3 | Fold change (CXCR4 D97E + V112A [8]): 2.6 | Fold change (CXCR4 D97E + V112L [9]): 32 | Fold change (CXCR4 V112A + L41A [10]): 11 | Fold change [11]: 7

B1: WSC02 408–414-NH2 (peptide)
peptide: IVRWSKK-NH2
notes: WSC02 truncated by five residues; source: synthetic peptide (Fmoc solid-phase synthesis, HPLC-purified)
IC50 [12]: 0.469 µM

B5: WSC02 (peptide)
peptide: IVRWSKKVPCVS
notes: also called EPI-X4 WSC02; source: synthetic peptide (Fmoc solid-phase synthesis, HPLC-purified)
IC50 [13]: 5.77 µM | IC50 (CXCR4 D97S [14]): 20.4 µM | IC50 (CXCR4 D97T): 35.4 µM | IC50 (CXCR4 D97Q): > 100 µM | IC50 (CXCR4 V112A [15]): 0.67 µM | IC50 (CXCR4 D97E [16]): 9.54 µM | IC50 (CXCR4 E288A): > 100 µM | IC50 [17]: 1.13 µM | IC50 (CXCR4 D97E + V112L [18]): 2 µM | IC50 (CXCR4 V112L): 0.42 µM | IC50 (CXCR4 D187E [19]): 0.49 µM | IC50 (CXCR4 E288D): 83.2 µM | IC50 (CXCR4 L41A [20]): 1.71 µM | IC50 (CXCR4 V112A + L41A [24]): 4.7 µM | IC50 (CXCR4 E277A [21]): 0.77 µM | IC50 (CXCR4 D97E + V112A [22]): 1.69 µM | IC50 (CXCR4 D262A [23]): 0.52 µM | IC50 (CXCR4 D97N): 527 µM | IC50 [12]: 0.539 µM

B6: EPI-X4 408–414-NH2 (peptide)
peptide: LVRYTKK-NH2
notes: source: synthetic peptide (Fmoc solid-phase synthesis, HPLC-purified)
IC50 [12]: 0.954 µM

B8: EPI-X4 408–416-NH2 (peptide)
peptide: LVRYTKKVP-NH2
notes: as for B6
IC50 [12]: 1.03 µM

Further molecules by falling IC50 [12], results first:

IC50 [12]: 0.312 µM
B2: WSC02 408–416-NH2 (peptide)
peptide: IVRWSKKVP-NH2
notes: WSC02 truncated by three residues; source: synthetic peptide (Fmoc solid-phase synthesis, HPLC-purified)

IC50 [12]: 0.262 µM
B4: JM#21 408–416-NH2 (peptide)
peptide: ILRWSRKLP-NH2
notes: JM#21 truncated by three residues; source: synthetic peptide (Fmoc solid-phase synthesis, HPLC-purified)

IC50 [12]: 0.157 µM
B7: EPI-X4 JM#21 408–414-NH2 (peptide)
peptide: ILRWSRK-NH2
notes: JM#21 truncated by five residues; source: synthetic peptide (Fmoc solid-phase synthesis, HPLC-purified)

IC50 [13]: 0.4 µM | IC50 (CXCR4 D97S [14]): 5.39 µM | IC50 (CXCR4 D97T): 3.83 µM | IC50 (CXCR4 D97Q): 8.05 µM | IC50 (CXCR4 V112A [15]): 3.45 µM | IC50 (CXCR4 D97E [16]): 1.91 µM | IC50 (CXCR4 E288A): 86.4 µM | IC50 [17]: 0.66 µM | IC50 (CXCR4 D97E + V112L [18]): 0.37 µM | IC50 (CXCR4 V112L): 0.41 µM | IC50 (CXCR4 D187E [19]): 0.31 µM | IC50 (CXCR4 E288D): 14.2 µM | IC50 (CXCR4 L41A [20]): 0.72 µM | IC50 (CXCR4 E277A [21]): 0.28 µM | IC50 (CXCR4 D97E + V112A [22]): 0.47 µM | IC50 (CXCR4 D262A [23]): 0.23 µM | IC50 (CXCR4 D97N): 11.1 µM | IC50 [12]: 0.145 µM
B3: EPI-X4 JM#21 (peptide)
peptide: ILRWSRKLPCVS
notes: as for B6
